Columns and labels:
Experiment in all cases: fluorescence anisotropy
A3H Hap II = A3H Hap II (human, UniProt Q6NTF7 1-181, G105R;K121D;E178D)
A3H Hap I K117E = A3H Hap I K117E (human, UniProt Q6NTF7 1-200, K117E)
A3H Hap I K117E/K121E = A3H Hap I K117E/K121E (human, UniProt Q6NTF7 1-200, K117E;K121E)
A3H Hap VII = A3H Hap VII (human, UniProt Q6NTF7 1-200, G105R)
Sequence of A3H Hap VII (Q6NTF7 whole entry G105R): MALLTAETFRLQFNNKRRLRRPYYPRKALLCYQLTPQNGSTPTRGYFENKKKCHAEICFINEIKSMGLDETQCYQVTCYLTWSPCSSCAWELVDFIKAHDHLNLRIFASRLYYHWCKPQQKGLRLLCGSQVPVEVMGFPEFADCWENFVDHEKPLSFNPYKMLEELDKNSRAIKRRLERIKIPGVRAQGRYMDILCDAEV

Sequence of A3H Hap I K117E (Q6NTF7 whole entry K117E): as the sequence (Q6NTF7 whole entry G105R) above, with R105G, K117E counted along it
Sequence of A3H Hap II (Q6NTF7 1-181 G105R/K121D/E178D): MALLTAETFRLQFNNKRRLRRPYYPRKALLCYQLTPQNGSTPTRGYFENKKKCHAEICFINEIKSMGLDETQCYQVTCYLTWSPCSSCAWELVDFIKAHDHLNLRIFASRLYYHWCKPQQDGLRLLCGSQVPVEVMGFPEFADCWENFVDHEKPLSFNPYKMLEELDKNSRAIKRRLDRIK
Sequence of A3H Hap I K117E/K121E (Q6NTF7 whole entry K117E/K121E): as the sequence (Q6NTF7 whole entry G105R) above, with R105G, K117E, K121E counted along it

B1: 118-nt ssDNA (ssDNA)
DNA: GAATATAGTTTTTAGCTCAAAGTAAGTGAAGATAATTTAGAGAGTTGTAATGTGATATATGTGTATGAAAGATATAAGACTCAAAGTGAAAAGTTGTTAATGTGTGTAGATATGTTAA
modifications: internal fluorescein-dT at position 37
**Q.** With B1 as the binder, how does the Kd (A3H Hap II) read?
**A.** 492 ± 28 nM

**Q.** What about the Kd (A3H Hap I K117E) of the same binder?
**A.** 3000 ± 1770 nM

**Q.** What about the Kd (A3H Hap I K117E/K121E) of the same binder?
**A.** 1240 ± 88 nM

**Q.** What about the Kd (A3H Hap VII) of the same binder?
**A.** 522 ± 4 nM

Reference: article PMC7503452
